The values below come from patent US20250026813A1 (published 2025).

Where “and” joins values, the source holds several entries; their conditions need not be identical. Equal entries are not always repeated. Some results are limits rather than exact numbers.

In assay [1] the target is T1, Receptor binding domain (Neil King, University of Washington) (SARS-CoV-2, UniProt P0DTC2 328-531).
Assay [2] addresses SARS-CoV-2 spike protein on live virus SARS-CoV-2 Victoria/01/2020 (SARS-CoV-2, UniProt P0DTC2 14-1273). Kind of assay: cell-based or functional assay.
Assay [3] addresses SARS-CoV-2 S2 spike domain (Sino Biological) (SARS-CoV-2, UniProt P0DTC2 686-1213).
Assay [4] deals with SARS-CoV-2 spike protein trimer, wild type (FIG. 2A sequence) with C-terminal trimerisation domain (SARS-CoV-2, UniProt P0DTC2 14-1213).
Assay [5] addresses T1, Receptor binding domain (Neil King, …). Kind of assay: SPR (Biacore 8K), antibody captured by anti-hFc, RBD as analyte. (Surface plasmon resonance follows binding to a sensor surface in real time, without labels.)
Assay [6] deals with RBD domain of the SARS-CoV-2 spike protein (Acro Biosystems SPD-C52H3), His tag (SARS-CoV-2, UniProt P0DTC2 319-537).
For assay [7], the target named is SARS-CoV-2 spike protein receptor binding domain (isolated RBD) (SARS-CoV-2, UniProt P0DTC2 319-541). Kind of assay: SPR (Biacore 8K), IgG1 captured via anti-hFc, RBD as analyte, 1:1 fit.
The target of assay [8] is SARS-CoV-2 spike protein receptor binding domain (RBD) (SARS-CoV-2, UniProt P0DTC2 319-541). Kind of assay: HT-SPR (Carterra LSA); IgG captured by anti-human Fc, RBD as analyte, 1:1 fit.

The term Kd denotes the free concentration of one partner at which half of the binding sites on the other are occupied at equilibrium, for simple one-to-one binding. A higher Kd goes with a looser complex. What is called koff is a measure of how fast the partners let go of each other. Low readings indicate a long-lived complex, high ones a short-lived complex. For orientation: kon means a measure of how fast the partners come together. A lower kon goes with slow association.

B1: IMPI-055 (antibody, V domains shown)
VH: QVQLVQSGAEVKKPGASVKVSCKASGYTFTSYDINWVRQATGQGLEWMGWMNPNSGNTGYAQKFQGRVTMTRDTSINTAYMELSSLRSEDTAVYFCARGGRYCSDVTCYSGEPFDYWGQGTLVTVSS
VL: EIMLTQSPDFQSVTPKEKVTITCRASQSIGSSLHWYQQKPDQSPKLLIKFASQSISGVPSRFSGSGSGTDFTLTINSLEAEDAAAYYCHQSSSLPHTFGPGTKVEIK
Molecule B1 displayed a dissociation constant (Kd) in assay [1] below 1000 pM.

B2: IMPI-004 (antibody, V domains shown)
VH: QVQLVESGGGVVQPGRSLRLSCAASGFTFSSYGMHWVRQAPGKGLEWVAVIWYDGGNKYYADSVKGRFTISRDNSKNTLYLQMNSLRAEDTAVYYCARVNVLMGYGMDVWGQGTTVTVSS
VL: EIVLTQSPGTLSLSPGDKATLSCRASQSIISSFLAWYQQKPGQAPRLLIYGASSRATGIPDRFSGSGSGTDFTLTISRLEPEDFAVYYCQQYGSSLTFGGGTKVEIK
On to B2, for which the “IC50, live virus foci (plaque) reduction neutralisation assay on Vero cells” value in assay [2] is 13 ng/ml and 86 pM.

B3: IMPI-013 (antibody, V domains shown)
VH: EVQLVESGGGLVQPGRSLRLSCAASGFTFDDYAMHWVRQTPGKGLEWVSGISWNSGSIGYADSVKGRFTISRDNAKNSLYLQMNSLRAEDTALYYCTKDLGLGIGFYYGLDVWGQGTTVTVSS
VL: AIQMTQSPSSLSTSVGDRVTITCRASQGIRNDLGWYQLKPGKAPKLLIYDASTLQSGVPSRFSGSGSGTDFTLTISSLEPEDLATYYCLHHYTYPWTFGHGTKVELK
In the case of B3, the Kd is 126 pM in assay [3] and 670 pM in assay [4].

B4: IMPI-013 (antibody, V domains shown)
VH: EVQLVESGGGLVQPGRSLRLSCAASGFTFDDYAMHWVRQTPGKGLEWVSGISWNSGSIGYADSVKGRFTISRDNAKNSLYLQMNSLRAEDTALYYCTKDLGLGIGFYYGLDVWGQGTTVTVSS
VL: AIQMTQSPSSLSTSVGDRVTITCRASQGIRNDLGWYQLKPGKAPKLLIYDASTLQSGVPSRFSGSGSGTDFTLTISSLEPEDLATYYCLHHYTYPWTFGHGTKVELK
notes: also called IMP-013
For B4, the binding result in assay [5] is “no binding (tested: up to 100 nM analyte)”.

B5: IMPI-002 (antibody, V domains shown)
VH: EVQLVESGGGLIQPGGSLRLSCAASGVTVSSNYMSWVRQAPGKGLEGVSVIYSGGSTYYADSVKGRFTISRDNSKNTLYLQMNSLRAEDTAVYYCARDTVVYGMDVWGQGTTVTVSS
VL: DIQLTQSPSFLSASVGDRVTITCWASQGISSYLAWYQQKPGKAPKLLIYAASTLQSGVPSRFSGSGSGTEFTLTISSLQPEDFATYYCQQLNSYPLTFGGGTKVEIK
On to B5, for which the “HTRF deltaF” value in assay [6] was 172 deltaF.

B6: IMPI-052 (antibody, V domains shown)
VH: EVQLVESGGGLIQPGGSLRLSCAASGVTVSSNYMNWVRQAPGKGLEGVSVIYSGGTTYYADSVKGRFTISRDNSKNTLYLQMNSLRAEDTAVYYCARDTVVYGMDVWGQGTTVTVSS
VL: DIQLTQSPSFLSASVGDRVTITCWASQGISSYLAWYQQKPGKAPKLLIYTASTLQSGVPSRFSGSGSGTEFTLTISSLQPEDFATYYCQQLNSYPLTFGGGTKVEIK
In assay [7], B6 displayed a Kd of 13200 pM.

B7: IMPI-052 (antibody, V domains shown)
VH: EVQLVESGGGLIQPGGSLRLSCAASGVTVSSNYMNWVRQAPGKGLEGVSVIYSGGTTYYADSVKGRFTISRDNSKNTLYLQMNSLRAEDTAVYYCARDTVVYGMDVWGQGTTVTVSS
VL: DIQLTQSPSFLSASVGDRVTITCWASQGISSYLAWYQQKPGKAPKLLIYTASTLQSGVPSRFSGSGSGTEFTLTISSLQPEDFATYYCQQLNSYPLTFGGGTKVEIK
As to B7, the “HTRF deltaF” value in assay [6] worked out at 229 deltaF.

B8: IMPI-052 (antibody, V domains shown)
VH: EVQLVESGGGLIQPGGSLRLSCAASGVTVSSNYMNWVRQAPGKGLEGVSVIYSGGTTYYADSVKGRFTISRDNSKNTLYLQMNSLRAEDTAVYYCARDTVVYGMDVWGQGTTVTVSS
VL: DIQLTQSPSFLSASVGDRVTITCWASQGISSYLAWYQQKPGKAPKLLIYTASTLQSGVPSRFSGSGSGTEFTLTISSLQPEDFATYYCQQLNSYPLTFGGGTKVEIK
With B8, the Kd in assay [8] amounted to 24100 pM.

B9: IMPI-059 (antibody, V domains shown)
VH: EVQLVESGGGLIQPGGSLRLSCAASGFTVSSIYMSWVRQAPGKGLEWVSIIYSRGSTDYADSVKGRFTISRDISKNTLYLQMNSLRAEDTAVYYCARDGTMVRGVHAFDIWGQGTMVTVSS
VL: DIQMTQSPPSLSASIGDRVTITCQASQDISNYLNWYQQKPGKAPKLLIYDASNLETGVPSRFSGSGSGTDFTLTISNLQPEDIVTYYCQQYDNLPSSFGQGTKLEIK
Regarding B9, the “IC50, live virus foci (plaque) reduction neutralisation assay on Vero cells” value in assay [2] was 26 pM. The Kd in assay [1] is below 1000 pM.

B10: IMPI-063 (antibody, V domains shown)
VH: EVQLVESGGGVVRPGGSLRLSCAASGFTFDDYGMSWVRQAPGKGLEWVSGIYWNGGSTGYADSVKGRFTISRDNAKNSLYLQMNSLRAEDMALYYCARGVGATDYWGQGTLVTVSS
VL: EIVLTQSPGTLSLSSGERATLACRASESVRGSFLAWYQQKPGQAPRLLIYGASRRATGIPDRFSGSGSGTDFTLTISRLEPEDFAVYYCQQYGNSPMCSFGQGTKLEIK
In assay [3], B10 showed a Kd of 845 pM, a koff of 7.77 s⁻¹ and a kon of 9.19e+09 M⁻¹ s⁻¹. In assay [4], this molecule gave a Kd of 2290 pM, a koff of 0.000939 s⁻¹ and a kon of 411000 M⁻¹ s⁻¹.

B11: IMPI-063 (antibody, V domains shown)
VH: EVQLVESGGGVVRPGGSLRLSCAASGFTFDDYGMSWVRQAPGKGLEWVSGIYWNGGSTGYADSVKGRFTISRDNAKNSLYLQMNSLRAEDMALYYCARGVGATDYWGQGTLVTVSS
VL: EIVLTQSPGTLSLSSGERATLACRASESVRGSFLAWYQQKPGQAPRLLIYGASRRATGIPDRFSGSGSGTDFTLTISRLEPEDFAVYYCQQYGNSPMCSFGQGTKLEIK
In the case of B11, the binding result in assay [5] is listed as “no binding (tested: up to 100 nM analyte)”.
